Data from patent US20160228563A1 (USTAV ORGANICKE CHEMIE A BIOCHEMIE AKADEMIE VED CR V V I, published 2016).
Square brackets hold non-standard residues; d marks the D form. * marks the point of attachment. 1Nal = N[C@@H](Cc1cccc2ccccc12)C(=O)O; Stearoyl = CCCCCCCCCCCCCCCCCC(=O)*; Palmitoyl = CCCCCCCCCCCCCCCC(=O)*; Nle = CCCC[C@H](N)C(=O)O

T1: rat PrRP receptor (GPR10) in RC-4B/C rat pituitary cells (rat, UniProt Q64121 1-370)
T1 construct: whole, on cells; receptor as expressed by RC-4B/C cells (ATCC); also called rat receptor; rat RC-4B/C cell receptor
T1 sequence (looked up): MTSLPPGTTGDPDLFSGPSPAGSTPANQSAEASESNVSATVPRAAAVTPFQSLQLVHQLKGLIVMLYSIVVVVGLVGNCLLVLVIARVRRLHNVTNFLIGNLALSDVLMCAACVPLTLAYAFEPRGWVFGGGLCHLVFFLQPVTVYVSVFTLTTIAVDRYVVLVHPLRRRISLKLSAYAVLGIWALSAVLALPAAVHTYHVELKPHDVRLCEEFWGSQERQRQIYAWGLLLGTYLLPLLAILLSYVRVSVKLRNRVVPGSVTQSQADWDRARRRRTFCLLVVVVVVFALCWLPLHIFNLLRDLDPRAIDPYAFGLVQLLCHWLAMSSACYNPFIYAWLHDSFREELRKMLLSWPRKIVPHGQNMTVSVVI

T2: human PrRP receptor GPR10 transfected in CHO cells (human, UniProt P49683 1-370)
T2 construct: whole, on cells; also called GPR10 human receptor; human GPR10 receptor
T2 sequence (looked up): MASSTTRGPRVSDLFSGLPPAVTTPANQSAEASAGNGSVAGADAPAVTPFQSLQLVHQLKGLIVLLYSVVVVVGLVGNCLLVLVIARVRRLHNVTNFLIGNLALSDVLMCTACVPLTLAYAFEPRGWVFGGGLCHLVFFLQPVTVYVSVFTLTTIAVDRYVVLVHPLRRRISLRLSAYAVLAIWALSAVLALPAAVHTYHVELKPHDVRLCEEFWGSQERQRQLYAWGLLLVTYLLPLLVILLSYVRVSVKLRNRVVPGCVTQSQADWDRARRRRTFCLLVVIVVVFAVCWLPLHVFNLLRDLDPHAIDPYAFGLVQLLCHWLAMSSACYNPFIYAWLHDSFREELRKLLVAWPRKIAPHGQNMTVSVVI


Key:
[1] = target: T1, rat PrRP receptor (GPR10) in RC-4B/C …; assay: 125I-rat PrRP31 displacement, RC-4B/C cells
Method: (§1) Competitive binding experiments were performed according to Motulsky and Neubig (Motulsky, A., et al., “Analyzing radioligand binding data,” Curr Protoc Neurosci, Chapter 7, Unit 7.5, 2002). Binding experiments were conducted with rat pituitary cells, and with Chinese Hamster Ovary (CHO) cells as follows:
The rat pituitary cell line RC-4B/C (ATCC, Manassas, USA) was grown on 24-well plates which had their bottom coated with polyethyleneimine. The cells were grown to the optimal density of 300-450 thousand cells per well.
(§2) Plates were incubated for 60 minutes at room temperature. After incubation, the cells were solubilized in 0.1 mol/l solution of NaOH, and the radioactivity bound to the cells was counted using a γ-counter. The experiments were performed in duplicate, and repeated at least three times.

[2] = target: T2, human PrRP receptor GPR10 transfected …; assay: 125I-human PrRP31 displacement, CHO-GPR10 cells
Method: as §1
CHO cells transfected with human PrRP receptor GPR10 (Perkin Elmer, USA) were grown on 24-well plates coated with polyethyleneimine. The cells were grown to the optimal density of 40-80 thousand cells per well.
as §2

Row | % of PrRP31 [1] | % of PrRP31 [2] | Binder
1 | 111% |  | Palmitoyl-SRAHQHS[Nle]ETRTPDINPAWYTGRGIRPVGR[1Nal]-NH2 [PrRP analog no. 12]
2 |  | 7% | Stearoyl-SRAHQHS[Nle]ETRTPDINPAWYTGRGIRPVGRF-NH2 [PrRP analog no. 9]
